Measurements taken from paper PMC7712654 (2020).

B1: α-CT coiled-coil domain fused with HIS tag (α-CT-His), fluorescently labeled (domain or fragment)
chain: INMKKREAVFSDSRKLQGEVDKLKEQILKAKETSTEAEPSSEVLNEMIEKLKSEIDDEYTEAAIAVGLEERLTAMREEFSKASSEEHLMHPVLIEKIEKLKEEFNTRLTDAPNYESLKSKLNMLRDFSRAKAASEATSLKKEINKRFQEAVDRPEIREKVEAIKAEVASSGASSFDELPDALKEKVLKTKGEVEAEMAGVLKSMGLELDAVKQNQKDTAEQIYAANENLQEKLEKLNQEITSKIEEVVRTPEIKSMVELLKVETAKASKTPGVTEAYQKIEALEQQIKQKIAEALNTSGLQEKQDELEKELAAARELAAEESDGSVKEDDDDDEDSSESGKSEMVNPSFA
modifications: fluorescently labeled using His-tag labeling kit (NanoTemper, MO-L008)
B2: coiled-coil domain of CTI1 fused with HIS tag (domain or fragment)
chain: PQISKAIAGADRKDLMRKLPKFIYDEEKALEKTRKVLAEKIAQLNSAIDDVSSQLKSEDTPNGAALSTDEIEATA

Tests used:
[1] = biological target: coiled-coil domain of CTI3 fused with HIS tag (Arabidopsis thaliana); experiment: MST
[2] = biological target: B1; experiment: MST

B1 showed a Kd [1] of 114 nM.

Binder B2 has a Kd [2] of 14.8 nM.
